B1: ATPase family AAA domain-containing protein 2 (Mus musculus), Q8CDM1 (parent)
chain: MSLLKMRRHAIHSSDSTSSSSSEDDCFERRTKRNRNRAINRCLPLNFRKDEIRGIYKDRMKIGASLADVDPMQLDTSVRFDSVGGLSSHIAALKEMVVFPLLYPEVFEKFKIQPPRGCLFYGPPGTGKTLVARALANECSRGDKRVAFFMRKGADCLSKWVGESERQLRLLFDQAYQMRPAIIFFDEIDGLAPVRSSRQDQIHSSIVSTLLALMDGLDSRGEIVVIGATNRLDSIDPALRRPGRFDREFLFSLPDKNARKEILKIHTRDWNPKPVDMFLEELAEHCVGYCGADIKSICAEAALCALRRRYPQIYTTSEKLQLDLSSITISAKDFEAALQKIRPASQRAVTSPGQALSAIVKPLLQNTVHRILDALQKVFPHVEVGTNKSLNSDVSCPFLESDLAYSDDDTPSVYENGLSQKENLNFLHLNRNACYQPMSFRPRLLIVGEPGFGQSSHLAPAVIHALEKFTVYTLDIPVLFGISTTSPEEACSQMIREAKRTAPSIVYVPHIHLWWEIVGPTLKATFTTLLQTIPSFAPVLLLATSEKPYSALPEEVQELFTHDYGEIFNVQLPDKEERTKFFEDLILKQASKPPVSQKKAVLQALEVLPVAPPPEPRPLTAEEVKRLEEQEEDTFRELRIFLRNVTHRLAIDKRFRVFTKPVDPDEVPDYVTVIKQPMDLSSVISKIDLHKYLTVKDYLKDIDLICSNALEYNPDRDPGDRLIRHRACALRDTAYAIIKEELDEDFEQLCEEIQESRKKRGCSSSKYAPSYYHVMPKQNSPPVGDKKPDQEQNEKLKVPCTPVACSTPAQLKRKFHKKSKWHVGTKIKRRKISQAKDNSLNAMNSSSRSDTEDSQHTHAEHTEPGNTDESSVEESDKQNRLESNIDLKNNSSSSNIENELEEPKETTEGTELRKDRIVCRGDASASQVTDIPEDSESKEMDFLRMTLARGSQVEQQELISMEQALAILSQPTPSLVLDHKQLTNILKTVVKKSQKYNIFQLENLYAVISQCIYEHRRDYDKTALVQKMEQAVENFNCSRS

Variants of: B1
Details: with h4_mouse H4c11, P62806

Row | Variant | effect of a mutation on the interaction
1 | K128S | disrupting interaction
2 | Y670F | disrupting interaction

— IntAct's records for PubMed 20581866
